The values that follow come from patent US11833215B2, “CKIT antibody drug conjugates” (Novartis AG, priority 2014, dated 2023).

For this test, the target named is T1, Human cKIT D1-D3 ECD (Homo sapiens, UniProt P10721, N130S/N145S).
T1 construct: protein was made with residues Q26-G311; made in house
Put plainly: crystal structure of cKIT ECD/NEG085 Fab complex. As to the method:
Human cKIT (accession code NM_000222 domain 1 (D1)-domain 3 (D3) extracellular domain (ECD) protein was made with residues Q26-G311 ([…], N145S- these changes results in glycosylation deficiency, in order to express the protein in a glycan free form). Equal molar ratios of human cKIT D1-D3 ECD and NEG085 Fab were mixed and subjected to a final gel filtration step equilibrated with 20 mM Tris-HCl pH 7.5 and 100 mM NaCl, and concentrated to 20 mg/ml. Trypsin was added to the protein complex crystallization sample to create a 1:100 w/w dilution. The protease/sample mixture was incubated at room temperature for 30 minutes before setting up the crystallization experiment.
Diffracting crystals of the cKIT ECD/NEG085 Fab complex were obtained directly from Protein Complex Suite F5 (0.1M NaCl, 0.1M Tris pH 8.0, 8% PEG 20 k; Qiagen) at 4° C. and, after minor optimization, led to crystals diffracting to 5 Å in-house. […]
Data were collected on a single crystal cooled to 100K using an ADSC QUANTUM 315 detector (ADSC, Poway CA) and synchrotron radiation (λ=1.0000 Å) at the beam line 5.0.2 of the Advanced Light Source. […] The crystal contains four copies of the cKIT ECD/NEG085 Fab complex in the asymmetric unit with a calculated solvent content of 66%. […]

T1 sequence (P10721 26-311 N130S/N145S limits assumed): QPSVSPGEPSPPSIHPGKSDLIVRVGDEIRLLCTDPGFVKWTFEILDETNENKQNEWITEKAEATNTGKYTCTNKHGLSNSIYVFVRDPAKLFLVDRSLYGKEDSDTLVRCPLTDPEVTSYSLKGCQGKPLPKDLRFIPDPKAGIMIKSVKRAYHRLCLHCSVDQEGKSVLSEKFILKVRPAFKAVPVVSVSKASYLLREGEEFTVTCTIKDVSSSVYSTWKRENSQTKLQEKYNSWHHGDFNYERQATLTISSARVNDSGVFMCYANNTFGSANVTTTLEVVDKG

B1: NEG085: anti-cKIT antibody of Table 3, VH SEQ ID NO 82, VL SEQ ID NO 91 (antibody, listed as Homo sapiens, V domains shown)
VH: EVQLVESGGGLVQPGGSLRLSCAASGFAFSGYYMAWVRQAPGKGLEWVANINYPGSSTYYLDSVKGRFTISRDNAKNSLYLQMNSLRAEDTAVYYCARGDYYGTTYWYFDVWGQGTTVTVSS
VL: DIQMTQSPSSLSASVGDRVTITCRASQSISSYLNWYQQKPGKAPKLLIYYTSRLQSGVPSRFSGSGSGTDFTLTISSLQPEDFATYYCQQGRRLWSFGGGTKVEIK
B1: the “competition with SCF for binding to cKIT (superposition of structures)” value is recorded as “appear to not compete”. Further, the “solvent-accessible surface area buried by NEG085/cKIT interface” value (total, H and L chain) is around 1890 Å2.
